Data published in US20150301046A1 (published 2015).
Where a chain is given by its changes, count along the chain named. Names and notes keep the numbering of the source.

Columns and labels:
[1] = target: T1, CD4 (cell surface receptor molecule on PBMCs) (human, UniProt P01730 26-458); assay: flow cytometry on PBMCs, Fab multimerized on Strep-Tactin PE
T1 construct: whole, on cells; also called CD4 receptor molecule
Experimental: For staining of a CD4 receptor molecule specific target cell population in a mixture of cells, Strep-Tactin® labeled with phycoerythrine as a fluorescent label (IBA GmbH, Göttingen, Germany) was used as multimerization reagent together with the monomeric CD4 binding Fab-One-STrEP fragment of the variants of the antibody 13B8.2 (that served as receptor binding reagent) as described below. For FACS analysis 5×10⁶ PBMCs were incubated with Fab multimers consisting of 0.2 μg Fab-fragment (comprising binding site B) equipped with the One-STrEP-tag (binding partner C) as receptor binding reagent and 0.75 μg Strep-Tactin® PE (IBA GmbH, Göttingen, Germany) as multimerization reagent using the protocol below. In addition, after FACS separation, the multivalent complexes were disrupted in a portion of each of the stained cells by addition of biotin as described below. […]
For staining and dissociation experiments, 5×10⁶ PBMCs were incubated with the respective anti-CD4 Fab-multimer-Strep-Tactin® PE complexes or with the corresponding Fab-monomers (the latter not complexed with Strep-Tactin® PE). […] As expected from the monomer staining experiments, no remaining Fab monomers could be detected for mutants 2, 3 and 4, whereas substantial residual cell surface bound Fab of the wild-type and mutant 1 variants was observed.

[2] = target: T1, CD4 (cell surface receptor molecule on …); assay: flow cytometry on PBMCs, Fab multimerized on Strep-Tactin PE (before the Western blot experiment)
Experimental: CD4 Fab-multimers were generated with the different anti-CD4 Fab-mutants listed in Table 1 and further specified in FIG. 2 and Strep-Tactin® PE (IBA GmbH, Göttingen, Germany). PBMCs were incubated with the different CD4 Fab-multimers and consistent cell staining in each sample was verified by flow cytometry (solid line compared to the tinted histogram representing unstained cells). Then, cells were treated with D-biotin and subsequently washed. Finally, washed cells were lysed, and the soluble (S) and insoluble (I) fractions were analyzed for remaining Fab-monomers using highly specific anti-Strep-Tag® antibodies (StrepMAB-Classic Horse Radish Peroxidase (HRP) conjugate; IBA GmbH, Göttingen, Germany). To control application of consistent amounts of insoluble cell material, β-actin was detected simultaneously with a primary antibody against β-actin from rabbit (Santa Cruz Biotechnology Inc., Santa Cruz, USA) and a secondary antibody against rabbit Ig (immunoglobulin) conjugated to HRP (Sigma, St. Louis, USA). […]

B1: 13B8.2 Fab fragment (Fab, V domains shown)
VH: QVQLKQSGPGLVQPSQSLSITCTVSGFSLTTFGVHWVRQSPGKGLEWLGVIWRSGITDYNVPFMSRLSITKDNSKSQVFFKLNSLQPDDTAIYYCAKNDPGTGFAYWGQGTLVTVSA
VL: DIQMTQSPASLSASVGETVTFTCRASEMIYSYLAWYQQKQGKSPQLLVHDAKTLAEGVPSRFSGGGSGTQFSLKINTLQPEDFGTYYCQHHYGNPPTFGGGTKLEIKR
notes: Chimeric Fab expressed in the periplasm of E. coli; In the staining it was used as a monomer or multimerized on Strep-Tactin PE; also called CD4 wt (13B8.2); 13B8.2 wildtype (wt) Fab fragment
B1: binds [1].

B2: mutant 13B8.2 Fab fragment, CD4 mutant 3 (H35A) (Fab, V domains shown)
VH: B1 VH with H35A
VL: B1 VL
notes: also called Fab mutant 3; H35-H
B2: binds [2].

B3: mutant 13B8.2 Fab fragment, CD4 mutant 2 (Y92A) (Fab, V domains shown)
VH: B1 VH
VL: B1 VL with Y92A
notes: also called Fab mutant 2; Y92-L
B3: binds [2].

B4: mutant 13B8.2 Fab fragment, CD4 mutant 1 (F100A) (Fab, V domains shown)
VH: B1 VH with F104A
VL: B1 VL
notes: also called Fab mutant 1; F100K-H
B4: binds [1].
